Experimental findings from US9969998B2, “Compositions of adenosine deaminase-2 (ADA2), variants thereof and methods of using same” (Halozyme, Inc., priority 2014, dated 2018) are described below.

In general, Km refers to the substrate concentration at which the rate is half of its maximum. Broadly, the Vmax is the rate approached at saturating substrate. One may read the kcat as the maximal rate divided by the concentration of active sites.

Series [1] in a line: Heparin-affinity chromatography (heparin-Sepharose, SDS-PAGE). The series is classed as binding. The conditions noted are these: for Heparin Column Binding: compared to WT rHuADA2, 0.3 mg/mL protein.
Series [2] is described as follows: Heparin binding ELISA (heparin coated microtiter plate). To be noted: for Average OD450, heparin binding ELISA: 3 μM protein; for Heparin Binding ELISA Average OD450: single and S265N combination variants (Table 34). The method, boiled down:
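Plates coated with 200 μg/mL heparin in Na2CO3 buffer pH 9.6 overnight at 4° C, then milk-blocked. FLAG-tagged rHuADA2 variants added at 3 μM for 2 h at room temperature. Bound protein detected with HRP-anti-FLAG and TMB, read as OD450.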

Series [3] is described as follows: Heparin binding capture ELISA (biotin-heparin on streptavidin plate). The conditions noted are these: PEGylated and non-PEGylated forms (Table 22). Here is the method: Heparin binding of PEGylated rHuADA2 or variants was assessed by capture ELISA. Binding of rHuADA1 was assessed as a negative control. 100 μL of 0.2 mg/mL biotin-heparin (Sigma-Aldrich, St. Louis, Mo.; Cat No. B9806-10MG) was added to a streptavidin coated 96-well plate (Thermo Fisher Scientific, Rockford, Ill.; Cat. No. 15520), and incubated at room temperature for 1 hour. The plate was washed 6 times with PBS. Then, 150 μL of […] rHuADA2 was added to the heparin coated plate, titrated in 3× serial dilutions, and incubated at room temperature for 2 hours. The plate was then washed 6 times with PBS. A 1000× dilution of goat HRP-anti-FLAG pAb (Abcam, Cambridge, UK; Cat. No. Ab1238) was added to the ELISA plate and incubated at room temperature for 1 hour. The ELISA plate was then washed 6 times with phosphate buffered saline with Tween (PBST) and developed with the 3,3′,5,5′-Tetramethylbenzidine (TMB) substrate solution (Pierce, Thermo Fisher Scientific, Rockford, Ill.) according the manufacturer's instructions and reading the optical density at 450 nm (OD450) on a plate reader.

The nature of series [4]: Kinetic assessment of adenosine deaminase activity (ammonia assay, Michaelis-Menten). The series is classed as biochemical. To be noted: for kcat: kcat=Vmax/0.0085/60; for kinetics properties compared to WT: pH 7.6 and pH 6.5. A digest of the protocol: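 Coupled ammonia assay: rHuADA2 WT or variants (1 μg/mL, 17 nM in 2× mix) with adenosine 20 μM–20 mM, α-ketoglutarate, NADPH and GDH, at pH 7.6 or pH 6.5 (PIPES), room temperature. Michaelis-Menten fit gave Km, Vmax, kcat, kcat/Km.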

Series [5] can be described thus: In vivo pharmacokinetics of rHuADA2, variants and PEGylated forms (Example 9). The conditions noted are these: male BALB/c mice, 7.5 mg/kg intravenous.
Text: (§1) Fifty four (54) male BALB/c mice were divided into six (6) dosing groups, and were further divided into three (3) groups each for sampling of blood at different time points. Thus, the mice were randomized into eighteen (18) groups total. Mice were weighed prior to the start of the study, and randomized into the 18 groups based upon their body weights. In each sampling group, three groups of (3) mice were used for dosing each test article to prevent oversampling of the blood from the animals. For measurement of baseline ADA2 levels, a blood sample was obtained from 12 randomly chosen mice and plasma was prepared using the anti-coagulant potassium (K3) ethylene diamine tetraacetic acid (K3-EDTA). All blood was collected by submandibular venipuncture.
(§2) Each mouse was injected by intravenous tail-vein injection with a 7.5 mg/kg dose of one of six ADA2 test article as set forth in Table 24, i.e. rHuADA2-K374D (K371D by mature numbering), PEG-rHuADA2-K374D (PEG-K371D by mature numbering), rHuADA2-R23E (R20E by mature numbering), PEG-rHuADA2-R23E (PEG-R20E by mature numbering), or WT ADA2 and PEG-WT ADA2.
(§3) Blood was collected at designated sampling time points from appropriate groups of mice as indicated below in Table 24 and kept on ice until plasma preparation. Plasma was prepared by centrifuging the blood (500×g for 5 min at 4° C.), transferring the plasma to a fresh tube and immediately freezing at −80° C. until the adenosine deaminase activity assay. Adenosine deaminase activity was determined as described in Example 4. The half-life, or time taken for the activity of ADA2 proteins to be reduced by half, was calculated. Also, total exposure was measured by calculating the Area Under the Concentration-time Curve (AUC).
The conditions of series [6]: mouse, in vivo, iv, 7.5 mg/kg.
Text: as §1, §2, §3

Where a chain is given by its changes, count along the chain named. Names and notes keep the numbering of the source. Like-named read-outs stand apart in the source and are kept apart here.

B1: R23E: ADA2 variant SEQ ID NO:30 (protein)
chain: IDETRAHLLLKEKMMRLGGELVLNTKEELANERLMTLKIAEMKEAMRTLIFPPSMHFFQAKHLIERSQVFNILRMMPKGAALHLHDIGIVTMDWLVRNVTYRPHCHICFTPRGIMQFRFAHPTPRPSEKCSKWILLEDYRKRVQNVTEFDDSLLRNFTLVTQHPEVIYTNQNVVWSKFETIFFTISGLIHYAPVFRDYVFRSMQEFYEDNVLYMEIRARLLPVYELSGEHHDEEWSVKTYQEVAQKFVETHPEFIGIKIIYSDHRSKDVAVIAESIRMAMGLRIKFPTVVAGFDLVGHEDTGHSLHDYKEALMIPAKDGVKLPYFFHAGETDWQGTSIDRNILDALMLNTTRIGHGFALSKHPAVRTYSWKKDIPIEVCPISNQVLKLVSDLRNHPVATLMATGHPMVISSDDPAMFGAKGLSYDFYEVFMGIGGMKADLRTLKQLAMNSIKYSTLLESEKNTFMEIWKKRWDKFIADVATK
modifications: human ADA2 R20E, mature numbering
Consider B1, for which, in series [1], the “heparin binding compared to WT” value was “attenuated heparin binding” and the “Heparin Column Binding” value was “Reduced”. In series [2], the “binding to heparin-coated plates compared to WT ADA2” value (“binding … compared to WT ADA2” below) is given as “attenuated binding to heparin” and the “Heparin Binding ELISA Average OD450” value was 0.71. Besides, the “Average OD450, heparin binding ELISA” value in series [2] (Set 2) is 0.2. In series [3], the “Average OD450, heparin binding capture ELISA” value was 0.71. Besides, in series [4] (pH 6.5, [E] = 8.5 nM), the Km was 3.29 mM, the Vmax was found to be 37.16 µM/min and the kcat was determined as 72.86 s⁻¹. Further, in series [4] (pH 7.6, [E] = 8.5 nM), the Km was determined as 5.06 mM, the Vmax was found to be 29.08 µM/min and the kcat was found to be 57.02 s⁻¹. Besides, the “kinetics properties compared to WT” value in series [4] is “improved kinetics properties compared to WT”. Besides, the “Half life slow (t1/2)” value in series [5] was 2.52 h. Moreover, in series [5] (vs non-PEGylated WT), the “Percent increase in AUC compared to WT ADA2” value (shortened to “Percent increase in AUC”) is 19% and the “Percent increase in t1/2 compared to WT ADA2” value came to 119%.

B2: WT ADA2: wild type recombinant human adenosine deaminase 2 with FLAG tag, mature ADA2 SEQ ID NO:5 (protein, listed as Homo sapiens)
chain: B1 chain with E20R
modifications: FLAG tag; ADA2 mature protein
With B2, the “Average OD450, heparin binding ELISA” value in series [2] (Set 1) worked out at 0.49; in series [2] (Set 2), 0.55. For the same molecule, in series [2], the “Heparin Binding ELISA Average OD450” value was 2.31. The “Average OD450, heparin binding capture ELISA” value in series [3] was 2.31. In addition, the Km in series [4] (pH 6.5) is 3.66 mM; in series [4] (pH 6.5, [E] = 8.5 nM), 3.66 mM; in series [4] (pH 7.6), 5.25 mM; in series [4] (pH 7.6, [E] = 8.5 nM), 5.25 mM. Further, the Vmax turned out to be 31.81 µM/min in series [4] (pH 6.5, [E] = 8.5 nM) and 26.09 µM/min in series [4] (pH 7.6, [E] = 8.5 nM). The kcat turned out to be 62.37 s⁻¹ in series [4] (pH 6.5, [E] = 8.5 nM) and 51.16 s⁻¹ in series [4] (pH 7.6, [E] = 8.5 nM). In series [5], the “Half life slow (t1/2)” value was 1.15 h.

B3: PEG-K374D: rHuADA2-K374D (SEQ ID NO:20) PEGylated on surface exposed lysines with linear PEG-20K (conjugate)
chain: B1 chain with E20R, K371D
modifications: linear PEG-20K on surface lysines; human ADA2 K371D, mature numbering
Regarding B3, in series [3], the “Average OD450, heparin binding capture ELISA” value is on record as 0.15. In addition, in series [6], the “AUC (mU * h)/mL” value was 2,725,000 (mU * h)/mL, the “Half life slow (t1/2)” value is 21.75 h, the “Percent increase in AUC” value amounted to 8187% and the “Percent increase in t1/2 compared to WT ADA2” value was 1791%.

B4: K374D: ADA2 variant SEQ ID NO:20 (protein)
chain: B1 chain with E20R, K371D
modifications: human ADA2 K371D, mature numbering
For B4, in series [1], the “heparin binding compared to WT” value is recorded as “attenuated heparin binding” and the “Heparin Column Binding” value is listed as “Reduced”. In series [2], the “binding … compared to WT ADA2” value is “attenuated binding to heparin” and the “Heparin Binding ELISA Average OD450” value is reported as 0.87. The “Average OD450, heparin binding ELISA” value in series [2] (Set 1) turned out to be 0.15. Moreover, the “Average OD450, heparin binding capture ELISA” value in series [3] is reported as 0.87. Also, in series [4] (pH 6.5, [E] = 8.5 nM), the Km was found to be 3.16 mM, the Vmax was determined as 42.98 µM/min and the catalytic constant (kcat) worked out at 84.27 s⁻¹. In series [4] (pH 7.6, [E] = 8.5 nM), the Km was determined as 4.88 mM, the Vmax was found to be 28.25 µM/min and the kcat was determined as 55.39 s⁻¹. Further, the “kinetics properties compared to WT” value in series [4] is given as “improved kinetics properties compared to WT”. In series [6], the “AUC (mU * h)/mL” value is on record as 74,983 (mU * h)/mL, the “Half life slow (t1/2)” value is 3.8 h, the “Percent increase in AUC” value was determined as 128% and the “Percent increase in t1/2 compared to WT ADA2” value is 230%.

B5: S265N: ADA2 variant SEQ ID NO:54 (protein)
chain: B1 chain with E20R, S262N
modifications: human ADA2 S262N, mature numbering
Take B5: the “binding … compared to WT ADA2” value in series [2] was “attenuated binding to heparin coated plates”. The “Heparin Binding ELISA Average OD450” value in series [2] was 0.88. Further, the Km in series [4] (pH 6.5) is 1.49 mM; in series [4] (pH 6.5, [E] = 8.5 nM) it was 1.49 mM; in series [4] (pH 7.6), 3.02 mM; in series [4] (pH 7.6, [E] = 8.5 nM), 3.02 mM. For the same molecule, the Vmax stood at 45.79 µM/min in series [4] (pH 6.5, [E] = 8.5 nM) and 80.49 µM/min in series [4] (pH 7.6, [E] = 8.5 nM). Also, the kcat amounted to 89.78 s⁻¹ in series [4] (pH 6.5, [E] = 8.5 nM) and 157.82 s⁻¹ in series [4] (pH 7.6, [E] = 8.5 nM).

B6: K374E: ADA2 variant SEQ ID NO:21 (protein)
chain: B1 chain with E20R, K371E
modifications: human ADA2 K371E, mature numbering
With B6, in series [1], the “heparin binding compared to WT” value is on record as “attenuated heparin binding” and the “Heparin Column Binding” value is reported as “Reduced”. In series [2], the “binding … compared to WT ADA2” value was “attenuated binding to heparin” and the “Heparin Binding ELISA Average OD450” value is listed as 0.03. For the same molecule, the “Average OD450, heparin binding ELISA” value in series [2] (Set 1) is 0.11. Moreover, in series [4] (pH 6.5, [E] = 8.5 nM), the Km is 3.18 mM, the Vmax came out at 41.93 µM/min and the catalytic constant (kcat) was determined as 82.22 s⁻¹. Besides, in series [4] (pH 7.6, [E] = 8.5 nM), the Km stood at 4.77 mM, the Vmax is 35.13 µM/min and the kcat is 68.88 s⁻¹. Besides, in series [4], the “kinetics properties compared to WT” value is on record as “improved kinetics properties compared to WT”.
